Patent publication US20050053985A1 (PTC THERAPEUTICS, published 2005)

Molecular target: SmB/B′ proteins (human, UniProt P14678 1-240)
Experiment: co-purification with the His-Flag-tagged bait from stable 293 cells (anti-Flag beads, then Ni beads); SDS-PAGE, Western blot with Y12 antibody (SmB/B′)
Description: Proteins co-purified with His-Flag-HsSen2, His-Flag-HsSen2deltaEx8, His-Flag-HsSen34, His-Flag-HsSen15 and His-Flag-HsClp1 were analyzed by SDS-PAGE followed by Western blotting with antibodies against Symplekin, CstF64. Y12 antibody that recognizes SmB/B′ proteins was used a negative control.
Complexes purified using the different epitope-tagged subunits of the endonuclease complexes were analyzed by Western blotting using antibodies specific for Symplekin and CstF64, components of the human pre-mRNA 3′-end processing complex. Y12 antibody (known to recognize pre-mRNA splicing snRNP […] proteins) was used as a negative control. […] Similar amounts of 3′-end complexes were purified from all His-Flag-tagged tRNA endonuclease subunits. Since the purification conditions were very stringent and utilized two affinity chromatography steps (see experimental procedures), the interaction between tRNA splicing endonuclease and pre-mRNA 3′-end processing factors is quite robust. Immunoprecipitation under standard salt conditions to more accurately determine the amount of 3′-end factors associated with the tRNA endonuclease was also performed. It was shown that as much as 1% of the 3′-end processing factors are associated with the tRNA endonuclease. […] Furthermore, His-Flag-HsSen2deltaEx8 and His-Flag-HsClp1 were able to associate with a larger proportion of the 3′-end formation complexes (FIG. 29, compare lane 8 and 11 to 7, 9, 10). [0764] 5.2.2.7 Depletion of SEN2 Causes Defects in tRNA Splicing and Pre-mRNA 3′ end Formation

B1: His-Flag-HsSen15 (other)
chain: MEERGDSEPTPGCSGLGPGGVRGFGDGGGAPSWAPEDAWMGTHPKYLEMMELDIGDATQVYVAFLVYLDLMESKSWHEVNCVGLPELQLICLVGTEIEGEGLQTVVPTPITASLSHNRIREILKASRKLQGDPDLPMSFTLAIVESDSTIVYYKLTDGFMLPDPQNISLRR
notes: Bait expressed stably in 293 cells; also called His-Flag-Sen15; tagged HsSen15; not shown: His and Flag tag from the His-Flag-pcDNA3.1/Hygro vector
binding result: no binding

B2: His-Flag-HsSen34 (other, not shown: small tags and cut ends)
chain: MLVVEVANGRSLVWGAEAVQALRERLGVGGRTVGALPRGPRQNSRLGLPLLLMPEEARLLAEIGAVTLVSAPRPDSRHHSLALTSFKRQQEESFQEQSALAAEARETRRQELLEKITEGQAAKKQKLEQASGASSSQEAGSSQAAKEDETSDGQASGEQEEAGPSSSQAGPSNGVAPLPRSALLVQLATARPRPVKARPLDWRVQSKDWPHAGRPAHELRYSIYRDLWERGFFLSAAGKFGGDFLVYPGDPLRFHAHYIAQCWAPEDTIPLQDLVAAGRLGTSVRKTLLLCSPQPDGKVVYTSLQWASLQ
notes: Bait expressed stably in 293 cells; also called His-Flag-Sen34; His-Flag-34
binding result: no binding

B3: His-Flag-HsSen2 (other, not shown: small tags and cut ends)
chain: MAEAVFHAPKRKRRVYETYESPLPIPFGQDHGPLKEFKIFRAEMINNNVIVRNAEDIEQLYGKGYFGKGILSRSRPSFTISDPKLVAKWKDMKTNMPIITSKRYQHSVEWAAELMRRQGQDESTVRRILKDYTKPLEHPPVKRNEEAQVHDKLNSGMVSNMEGTAGGERPSVVNGDSGKSGGVGDPREPLGCLQEGSGCHPTTESFEKSVREDASPLPHVCCCKQDALILQRGLHHEDGSQHIGLLHPGDRGPDHEYVLVEEAECAMSEREAAPNEELVQRNRLICRRNPYRIFEYLQLSLEEAFFLVYALGCLSIYYEKEPLTIVKLWKAFTVVQPTFRTTYMAYHYFRSKGWVPKVGLKYGTDLLLYRKGPPFYHASYSVIIELVDDHFEGSLRRPLSWKSLAALSRVSVNVSKELMLCYLIKPSTMTDKEMESPECMKRIKVQEVILSRWVSSRERSDQDDL
notes: Bait expressed stably in 293 cells and purified with its partners over anti-Flag and Ni beads; also called His-Flag-Sen2; His-Flag-Sen2WT
binding result: no binding

B4: His-Flag-HsSen2deltaEx8 (other, not shown: small tags and cut ends)
chain: MAEAVFHAPKRKRRVYETYESPLPIPFGQDHGPLKEFKIFRAEMINNNVIVRNAEDIEQLYGKGYFGKGILSRSRPSFTISDPKLVAKWKDMKTNMPIITSKRYQHSVEWAAELMRRQGQDESTVRRILKDYTKPLEHPPVKRNEEAQVHDKLNSGMVSNMEGTAGGERPSVVNGDSGKSGGVGDPREPLGCLQEGSGCHPTTESFEKSVREDASPLPHVCCCKQDALILQRGLHHEDGSQHIGLLHPGDRGPDHEYVLVEEAECAMSEREAAPNEELVQRNRLICRRNPYRIFEYLQLSLEEEPLTIVKLWKAFTVVQPTFRTTYMAYHYFRSKGWVPKVGLKYGTDLLLYRKGPPFYHASYSVIIELVDDHFEGSLRRPLSWKSLAALSRVSVNVSKELMLCYLIKPSTMTDKEMESPECMKRIKVQEVILSRWVSSRERSDQDDL
notes: also called His-Flag-Sen2ΔEx8; His-Flag-Sen2deltaEx8
binding result: no binding
